Target: G-actin in human serum

| Protein | Average T50 (min) 50% DNA hydrolysis in human serum [min] | Time T50 (min) 50% DNA hydrolysis in human serum |
| --- | --- | --- |
| wild-type human DNase I (protein) LKIAAFNIQTFGETKMSNATLVSYIVQILSRYDIALVQEVRDSHLTAVGKLLDNLNQDAPDTYHYVVSEPLGRNSYKERYLFVYRPDQVSAVDSYYYDDGCEPCGNDTFNREPAIVRFFSRFTEVREFAIVPLHAAPGDAVAEIDALYDVYLDVQEKWGLEDVMLMGDFNAGCSYVRPSQWSSIRLWTSPTFQWLIPDSADTTATPTHCAYDRIVVAGMLLRGAVVPDSALPFNFQAAYGLSDQLAQAISDHYPVEVMLK | 28 | 26; 28; 30 |
| actin-resistant version of DNase I, arDNase (+1), substitution A114R (protein) LKIAAFNIQTFGETKMSNATLVSYIVQILSRYDIALVQEVRDSHLTAVGKLLDNLNQDAPDTYHYVVSEPLGRNSYKERYLFVYRPDQVSAVDSYYYDDGCEPCGNDTFNREPRIVRFFSRFTEVREFAIVPLHAAPGDAVAEIDALYDVYLDVQEKWGLEDVMLMGDFNAGCSYVRPSQWSSIRLWTSPTFQWLIPDSADTTATPTHCAYDRIVVAGMLLRGAVVPDSALPFNFQAAYGLSDQLAQAISDHYPVEVMLK | 3 | 2; 3; 4 |

— US20090047272
